Here are results for three molecules from patent publication US20250297032A1 (CONCEPT TO MEDICINE BIOTECH, published 2025).

The target of test [1] is T1, human FAPα-His tag (Sino biological) (human, UniProt Q12884 26-760).
T1 construct: Bought protein; also called human FAPα-His protein; not shown: His tag
T1 sequence (looked up): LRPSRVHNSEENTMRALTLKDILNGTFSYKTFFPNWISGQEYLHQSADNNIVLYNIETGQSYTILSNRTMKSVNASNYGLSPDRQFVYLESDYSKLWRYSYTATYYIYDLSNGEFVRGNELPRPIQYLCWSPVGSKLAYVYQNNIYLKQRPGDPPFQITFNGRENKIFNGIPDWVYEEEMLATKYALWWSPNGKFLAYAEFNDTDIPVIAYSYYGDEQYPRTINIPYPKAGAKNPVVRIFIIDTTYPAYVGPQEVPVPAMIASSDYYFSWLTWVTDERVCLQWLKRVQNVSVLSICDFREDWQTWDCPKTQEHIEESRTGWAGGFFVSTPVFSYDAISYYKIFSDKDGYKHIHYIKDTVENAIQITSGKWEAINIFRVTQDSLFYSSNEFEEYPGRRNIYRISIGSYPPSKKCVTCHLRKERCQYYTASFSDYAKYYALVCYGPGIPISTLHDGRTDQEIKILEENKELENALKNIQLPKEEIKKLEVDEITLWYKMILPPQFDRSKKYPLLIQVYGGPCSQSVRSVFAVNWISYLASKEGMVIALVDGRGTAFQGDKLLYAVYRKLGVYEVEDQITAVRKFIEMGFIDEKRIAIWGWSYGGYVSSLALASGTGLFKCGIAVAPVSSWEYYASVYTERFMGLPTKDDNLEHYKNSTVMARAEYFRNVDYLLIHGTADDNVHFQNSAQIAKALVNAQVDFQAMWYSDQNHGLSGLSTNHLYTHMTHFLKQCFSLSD
The experiment in a line: SPR (Biacore T200), mAb captured on Protein A chip, human FAPα-His as analyte. How it is done:
The binding of the tested antibodies to recombinant FAPα protein (human FAPα-his tag) was tested with Biacore using a capture method. The mAbs were captured using Protein A chip. A serial dilution of human FAPα-his tag protein was injected over captured antibody for 3 mins at a flow rate of 30 μl/min. The antigen was allowed to dissociate for 800s. All the experiments were carried out on a Biacore T200. Data analysis was carried out using the Biacore T200 evaluation software.
(In general: Surface plasmon resonance follows binding to a sensor surface in real time, without labels.)

Test [2] concerns the target T2, human FAPα on CHO-K1-hFAPα cells (human, UniProt Q12884 1-760).
T2 construct: whole, on cells; also called cell-surface FAPα
T2 sequence (looked up): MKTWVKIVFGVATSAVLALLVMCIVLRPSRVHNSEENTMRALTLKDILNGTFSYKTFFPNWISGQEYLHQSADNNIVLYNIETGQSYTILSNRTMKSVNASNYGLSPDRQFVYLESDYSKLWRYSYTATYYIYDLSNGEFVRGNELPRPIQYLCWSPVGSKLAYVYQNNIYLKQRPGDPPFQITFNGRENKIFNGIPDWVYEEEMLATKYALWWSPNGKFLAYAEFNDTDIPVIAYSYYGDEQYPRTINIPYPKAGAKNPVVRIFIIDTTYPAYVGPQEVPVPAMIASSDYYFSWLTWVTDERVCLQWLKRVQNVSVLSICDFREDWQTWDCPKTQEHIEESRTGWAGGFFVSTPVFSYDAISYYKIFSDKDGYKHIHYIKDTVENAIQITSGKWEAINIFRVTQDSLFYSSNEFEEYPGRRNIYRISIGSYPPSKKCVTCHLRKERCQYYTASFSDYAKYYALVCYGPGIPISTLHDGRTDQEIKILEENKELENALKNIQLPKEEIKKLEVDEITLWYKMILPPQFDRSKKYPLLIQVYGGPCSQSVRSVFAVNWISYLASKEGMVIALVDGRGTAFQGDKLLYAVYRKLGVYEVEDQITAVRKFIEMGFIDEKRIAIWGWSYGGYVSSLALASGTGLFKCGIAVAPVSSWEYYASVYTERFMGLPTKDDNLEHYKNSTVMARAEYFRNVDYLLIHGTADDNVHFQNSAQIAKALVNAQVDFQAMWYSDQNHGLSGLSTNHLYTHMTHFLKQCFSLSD
The test can be described thus: flow cytometry on CHO-K1-hFAPα cells (MFI of PE). Also noted: unit not given beside the values. How it is done: (§1) To evaluate the cell-based binding property to human FAPα, the tested antibodies were analyzed for their binding to CHO-K1-hFAPα by FACS. A total number of 1×10⁵ CHO-K1-hFAPα cells in each well were incubated with 4-fold serial diluted antibodies starting from 3 μg/ml for 30 minutes at 4° C. in FACS buffer. After wash by FACS buffer, PE conjugated-anti-human IgG antibody was added to each well and incubated at 4° C. for 30 minutes. After wash, MFI of PE was evaluated by MACSQuant Analyzer 16.
In general terms: In flow cytometry, cells or beads pass a laser one at a time.

The target of test [3] is T2, human FAPα on CHO-K1-hFAPα cells. The test can be described thus: flow cytometry on CHO-K1-hFAPα cells. On the procedure:
as §1

The target in test [4] is T1, human FAPα-His tag (Sino biological). The test can be described thus: ELISA, coated human FAPα-His. How it is done: Briefly, microtiter plates were coated with human FAPα-His protein at 0.5 ug/ml in PBS, 100 μl/well at 4° C. overnight, then blocked with 150 μl/well of 1% BSA. Three-fold dilutions of tested antibodies starting from 1 μg/ml were added to each well and incubated for 1 hour at 37° C. The plates were washed with PBS/Tween and then incubated with Anti-Human IgG (H&L) (GOAT) Antibody Peroxidase Conjugated for 30 mins at 37° C. After washing, the plates were developed with TMB substrate and analyzed by spectrophotometer at OD 450 nm. […] FAP-4B9 clone from Roche was served as positive control which labeled as FAPα-BMK.
Background: ELISA stands for enzyme-linked immunosorbent assay.

Test [5] concerns the target T3, mouse FAPα-His protein (mouse, UniProt P97321 26-761, limits assumed).
T3 construct: not shown: His tag
T3 sequence (looked up): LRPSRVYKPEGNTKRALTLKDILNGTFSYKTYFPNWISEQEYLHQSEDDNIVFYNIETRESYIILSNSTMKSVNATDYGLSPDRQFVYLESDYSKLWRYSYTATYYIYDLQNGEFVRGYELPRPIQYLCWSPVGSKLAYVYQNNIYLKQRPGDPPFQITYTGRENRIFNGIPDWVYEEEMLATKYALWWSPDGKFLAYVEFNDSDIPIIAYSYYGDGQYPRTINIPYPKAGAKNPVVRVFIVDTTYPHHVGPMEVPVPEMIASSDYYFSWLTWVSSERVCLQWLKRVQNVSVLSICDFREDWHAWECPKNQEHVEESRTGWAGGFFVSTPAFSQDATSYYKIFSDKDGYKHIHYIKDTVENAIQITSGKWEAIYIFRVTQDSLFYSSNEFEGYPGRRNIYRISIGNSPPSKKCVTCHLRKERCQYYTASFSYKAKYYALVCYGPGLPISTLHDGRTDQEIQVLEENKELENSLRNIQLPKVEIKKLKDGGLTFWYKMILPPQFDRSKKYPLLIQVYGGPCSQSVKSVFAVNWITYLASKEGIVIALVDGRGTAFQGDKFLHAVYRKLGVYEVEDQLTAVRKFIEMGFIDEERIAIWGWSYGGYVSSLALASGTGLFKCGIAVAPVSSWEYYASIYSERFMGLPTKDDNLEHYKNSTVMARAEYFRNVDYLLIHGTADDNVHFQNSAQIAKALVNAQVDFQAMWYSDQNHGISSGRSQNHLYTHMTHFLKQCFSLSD
The test can be described thus: ELISA, plate coated with mouse FAPα-His, anti-human IgG-HRP, OD 450 nm. On the procedure: Briefly, microtiter plates were coated with mouse FAPα-His protein at 0.5 ug/ml in PBS, 100 μl/well at 4° C. overnight, then blocked with 150 μl/well of 1% BSA. Three-fold dilutions of tested antibodies starting from 1 μg/ml were added to each well and incubated for 1 hour at 37° C. The plates were washed with PBS/Tween and then incubated with Anti-Human IgG (H&L) (GOAT) Antibody Peroxidase Conjugated for 30 mins at 37° C. After washing, the plates were developed with TMB substrate and analyzed by spectrophotometer at OD 450 nm.

Test [6] has as its target T1, human FAPα-His tag (Sino biological). The experiment in a line: competitive ELISA on coated human FAPα; competitor (detected): FAP-I38-Bio. How it is done: (§2) Briefly, microtiter plates were coated with human FAPα proteins at 0.5 μg/ml in PBS, 100 μl/well at 4° C. overnight, then blocked with 150 μl/well of 1% BSA. Serial dilutions of chimeric antibodies as well as biotin-conjugated reference mAb were added to each well and incubated for 1 hour at RT. The plates were washed with PBS/Tween and then incubate with streptavidin-HRP for 15 mins at RT. After washing, the plates were developed with TMB substrate and analyzed by spectrophotometer at OD 450 nm. According to the competition ability to reference mAbs (Benchmark, or “BMK”), all tested FAPα mAbs binds to the similar epitope as shown in Table 5.

Test [7] shares this target. The test can be described thus: competitive ELISA on coated human FAPα; competitor (detected): FAP-J40-Bio. On the procedure: as §2
For test [8] the target is unchanged. The test can be described thus: competitive ELISA on coated human FAPα; competitor (detected): FAP-I37-Bio. How it is done:
(§3) Competitive ELISA was carried out to classify the FAPα mAbs based on the binding epitope to human FAPα.
as §2

Test [9] has the same target. The experiment in a line: competitive ELISA on coated human FAPα; competitor (detected): FAPα (BMK)-Bio. On the procedure:
as §2

The target is the same in test [10]. The experiment in a line: competitive ELISA on coated human FAPα; competitor (detected): FAP-G52-Bio. On the procedure: as §2
The target is the same in test [11]. The test can be described thus: competitive ELISA on coated human FAPα; competitor (detected): FAP-G14-Bio. On the procedure:
as §3, §2

For test [12] the target is unchanged. The test can be described thus: competitive ELISA on coated human FAPα; biotinylated mAb alone, no competing Ab (row '0'). On the procedure: as §2
The target is the same in test [13]. The experiment in a line: competitive ELISA on coated human FAPα; competitor (detected): FAP-I30-Bio. How it is done: as §2

B1: J59 (antibody, V domains shown)
VH: QVQLLESGGGVVQPGRSLRLSCAASGFTFSSYGMHWVRQAPGKGLEWVAVISYDGSNKYYADSVKGRFTISRDNSKNTLYLQMNSLRADDTAVYYCARESYTGLGSFLHWGQGTLVTVSA
VL: NIQLTQSPSSLSASVGDRVTITCRASQTISNYLNWYQQKPGKAPKLLISAASSLQGGVPSRFSGSGSGTDFTLAISSLQPEDSATYYCQYWGTFGQGTKLEIK
notes: Tested as a mAb
For the molecule B1, in test [1], the equilibrium dissociation constant (Kd) – broadly, the equilibrium constant for the complex coming apart – was 1.78 nM; the koff (as a rule, the first-order rate constant of dissociation) turned out to be 0.000594 s⁻¹; the kon (as a rule, a measure of how fast the partners come together) was found to be 333000 M⁻¹ s⁻¹. In test [2], this molecule gave a Cmax of 149. Moreover, the midpoint of the response in test [3], the EC50, lay at 0.029 ng/mL. For the same molecule, in test [4], the 50% effective concentration (EC50) – broadly, the midpoint of the concentration-response curve – is 3.94 ng/mL. In addition, the binding result in test [5] is listed as “no binding (tested: 1000 ng/ml)”.

B2: G52 (antibody, V domains shown)
VH: EVQLLESGGDLVQPGGSLRLSCAASGFTFSSYAMSWVRQAPGKGLEWVSGISNGGDSIAYADSVKGRFTVFRDNAKNTLYLQMNSLRAEDTAIYYCARGNYYAHDDWGQGTLVTVSA
VL: DIQLTQSPSSVSASVGDRVTITCRASQGVGSWLAWYQQKPGKPPKLLIYAASSLQSGVPSRFSGSGSGTDFTLTISSLQPEDFATYYCQQANSFPLTFGGGTKVEIK
notes: Tested as a mAb; also called FAP-G52; FAP-G52-Bio (biotin-conjugated form)
B2: the “OD 450 nm” value is 0.466 OD 450 nm in [6]; 0.298 OD 450 nm in test [7]; 0.399 OD 450 nm in test [8]; 0.304 OD 450 nm in test [9]; 0.283 OD 450 nm in test [10]; 0.358 OD 450 nm in [11]. The “OD 450 nm” value in test [12] was found to be 1.26 OD 450 nm; in test [13] it was 0.302 OD 450 nm. Besides, binding in test [1] was put at a Kd of 0.446 nM. In test [1], this molecule registered a koff of 1.81e-05 s⁻¹. In test [1], this molecule displayed an on-rate constant (kon) of 40500 M⁻¹ s⁻¹. The EC50 in test [4] was 9.48 ng/mL. Besides, in test [5], the binding result was “no binding (tested: 1000 ng/ml)”.

B3: I38 (antibody, V domains shown)
VH: EVQLVQSGAEVKEPGVSVKVSCKASGYTFASYGLSWVRLAPGQGLQWMGWISPYTPNPIYAPNFRDKVILTTDRSTNTAYLEVRSLRSDDTGLYYCARNHWVGRPTRAFDLWGQGTMVTVSA
VL: EIVLTQSPGTLSLSPGERATLSCRASQTVSITHLAWYQQKPGQAPRLLTYGASARATGIPDRFSVSGSGTDFTLTITRLEPEDFAVYYCQHYGSSITFGGGTKVEIK
notes: Tested as a mAb; also called FAP-I38
With B3, the “OD 450 nm” value was 0.396 OD 450 nm in test [6]; 0.226 OD 450 nm in [7]; 0.282 OD 450 nm in test [8]; 0.154 OD 450 nm in test [9]; 0.176 OD 450 nm in [10]; 0.149 OD 450 nm in test [11]. The “OD 450 nm” value in test [12] amounted to 1.21 OD 450 nm; in test [13], 0.22 OD 450 nm. The affinity in test [1], expressed as Kd, was 1.12 nM. The same molecule returned a koff in test [1] of 0.000116 s⁻¹. In test [1], the kon turned out to be 103000 M⁻¹ s⁻¹. For the same molecule, the Cmax in [2] was found to be 189. In addition, the figures for the EC50 in test [3] and in test [4] were 0.026 ng/mL and 4.89 ng/mL, respectively.
